Key:
[1] = target: SHHN-E176A (N-terminal construct of human SHH with E176A, N-lipid containing, C-lipid lacking) (human); experiment: cross-linking
[2] = target: SHH-E177A (mouse SHH with E177A, expressed from the targeted endogenous locus) (mouse); experiment: SDS-resistant cross-linked form on Western blot of tissue extract

Row | stoichiometry N [1] | stoichiometry N [2] | Substance
1 | 2 |  | SHHN-E176A (N-terminal construct of human SHH with E176A, N-lipid containing, C-lipid lacking) (domain or fragment)
2 |  | 2 | SHH-E177A (mouse SHH with E177A, expressed from the targeted endogenous locus) (natural protein)

— PMC6047533
